We go through one molecule from publication PMC2918618, “Characterization of the TnsD-attTn7 complex that promotes site-specific insertion of Tn7” (Mobile DNA, 2010).

What all share (experiment): EMSA; Gel-shift buffer not given (as described in ref. 6); TnsD stored in 500 mM KCl, 50 mM Tris-HCl pH 8.0, 1 mM EDTA, 2 mM DTT, 25% glycerol
Common to all, as to conditions: protein: recombinant; tags: intein-chitin tag, cleaved with DTT

In one data set the target is T1, TnsD wt (Escherichia coli (transposon Tn7), UniProt P13991 1-508).
T1 sequence: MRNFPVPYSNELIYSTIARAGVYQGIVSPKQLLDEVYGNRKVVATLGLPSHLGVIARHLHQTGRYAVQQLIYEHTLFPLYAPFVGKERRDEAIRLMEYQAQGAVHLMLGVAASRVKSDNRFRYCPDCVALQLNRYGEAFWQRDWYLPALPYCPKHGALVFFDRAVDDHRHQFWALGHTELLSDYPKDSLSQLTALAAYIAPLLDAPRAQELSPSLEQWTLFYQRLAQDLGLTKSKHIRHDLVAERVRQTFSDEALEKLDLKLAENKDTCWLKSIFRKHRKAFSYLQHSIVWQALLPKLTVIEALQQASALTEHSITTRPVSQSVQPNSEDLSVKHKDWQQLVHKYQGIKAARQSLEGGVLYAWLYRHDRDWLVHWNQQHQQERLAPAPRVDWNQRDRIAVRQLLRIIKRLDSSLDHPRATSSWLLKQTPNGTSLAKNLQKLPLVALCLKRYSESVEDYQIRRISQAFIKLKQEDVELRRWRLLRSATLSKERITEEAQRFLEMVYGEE

The target in a further data set is T2, TnsD C124S (Escherichia coli (transposon Tn7), UniProt P13991 1-508, C124S).
T2 sequence: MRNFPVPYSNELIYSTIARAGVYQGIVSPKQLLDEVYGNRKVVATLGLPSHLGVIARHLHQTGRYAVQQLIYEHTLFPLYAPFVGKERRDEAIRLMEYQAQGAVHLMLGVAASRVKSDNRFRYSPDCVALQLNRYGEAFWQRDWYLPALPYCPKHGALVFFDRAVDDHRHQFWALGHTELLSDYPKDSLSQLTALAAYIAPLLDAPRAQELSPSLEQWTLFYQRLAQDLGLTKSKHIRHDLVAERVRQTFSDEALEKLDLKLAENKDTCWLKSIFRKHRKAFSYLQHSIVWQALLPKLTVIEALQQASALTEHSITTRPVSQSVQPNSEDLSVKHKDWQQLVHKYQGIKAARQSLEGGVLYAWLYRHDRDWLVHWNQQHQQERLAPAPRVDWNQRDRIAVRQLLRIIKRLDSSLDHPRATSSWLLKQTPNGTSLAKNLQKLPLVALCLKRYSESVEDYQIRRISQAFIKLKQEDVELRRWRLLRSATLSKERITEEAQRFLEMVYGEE

Another data set concerns the target T3, TnsD H155S (Escherichia coli (transposon Tn7), UniProt P13991 1-508, H155S).
T3 sequence: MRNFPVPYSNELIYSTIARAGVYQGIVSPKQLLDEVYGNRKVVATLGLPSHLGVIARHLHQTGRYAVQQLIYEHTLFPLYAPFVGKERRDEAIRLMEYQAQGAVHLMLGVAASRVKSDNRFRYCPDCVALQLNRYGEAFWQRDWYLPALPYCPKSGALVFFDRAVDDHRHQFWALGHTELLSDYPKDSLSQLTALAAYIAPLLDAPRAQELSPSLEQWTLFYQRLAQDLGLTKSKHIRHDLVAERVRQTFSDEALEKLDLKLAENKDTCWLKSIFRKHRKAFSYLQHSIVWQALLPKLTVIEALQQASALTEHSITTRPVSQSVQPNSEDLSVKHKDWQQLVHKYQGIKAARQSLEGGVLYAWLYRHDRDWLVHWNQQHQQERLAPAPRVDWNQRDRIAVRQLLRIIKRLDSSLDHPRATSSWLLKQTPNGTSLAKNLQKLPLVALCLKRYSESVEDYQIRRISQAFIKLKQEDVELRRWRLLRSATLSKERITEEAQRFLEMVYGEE

The next data set deals with T4, TnsD C127S (Escherichia coli (transposon Tn7), UniProt P13991 1-508, C127S).
T4 sequence: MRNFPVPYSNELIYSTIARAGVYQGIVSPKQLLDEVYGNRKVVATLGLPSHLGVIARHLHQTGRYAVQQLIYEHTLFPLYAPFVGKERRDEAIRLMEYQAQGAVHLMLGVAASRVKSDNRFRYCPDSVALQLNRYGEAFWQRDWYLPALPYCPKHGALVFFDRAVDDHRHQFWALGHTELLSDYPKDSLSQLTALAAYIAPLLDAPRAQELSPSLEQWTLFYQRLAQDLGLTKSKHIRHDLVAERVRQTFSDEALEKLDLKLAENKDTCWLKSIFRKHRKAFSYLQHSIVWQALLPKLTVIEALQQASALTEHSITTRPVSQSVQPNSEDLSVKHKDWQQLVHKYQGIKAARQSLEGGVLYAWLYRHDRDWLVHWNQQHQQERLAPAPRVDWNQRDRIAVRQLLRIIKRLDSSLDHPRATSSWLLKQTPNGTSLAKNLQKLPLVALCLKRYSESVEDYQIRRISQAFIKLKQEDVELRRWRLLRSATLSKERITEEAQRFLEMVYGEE

B1: attTn7 wt (+23 to +58) (dsDNA)
DNA 1: CCGCGTAACCTGGCAAAATCGGTTACGGTTGAGTAA
DNA 2: TTACTCAACCGTAACCGATTTTGCCAGGTTACGCGG
For B1, the binding signal with TnsD wt is 1 relative to wt; with TnsD C124S, 0.05 relative to wt; with TnsD H155S it was 0.05 relative to wt; with TnsD C127S, 0.05 relative to wt.
